Data on five molecules can be found in patent publication US20240239891A1 (Stanford University, published 2024).

For test [1], the target named is T1, extracellular domain (ECD) of human GOLIATH (RNF130) (human, UniProt Q86XS8 28-194).
T1 construct: extracellular domain; also called GOLIATH ECD
T1 sequence (looked up): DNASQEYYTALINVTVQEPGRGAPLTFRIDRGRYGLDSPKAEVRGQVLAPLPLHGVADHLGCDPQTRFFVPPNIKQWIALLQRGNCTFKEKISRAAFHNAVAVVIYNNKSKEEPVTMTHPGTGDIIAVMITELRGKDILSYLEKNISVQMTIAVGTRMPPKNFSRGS
In words: SPR (Biacore), titration at equilibrium, nanobody on ECD.

The target in test [2] is T2, extracellular domain (ECD) of human GODZILLA (RNF167) (human, UniProt Q9H6Y7 25-173, limits assumed).
T2 construct: extracellular domain; also called GODZILLA ECD
In words: SPR (Biacore), titrations at equilibrium, Biacore Analysis Software; row GOLIATH-D1, column GODZILLA (hRNF167). For orientation: SPR reads the build-up and loss of mass on a sensor chip optically.

Test [3] has as its target GODZILLA (RNF167) on Ba/F3 cells (mouse, UniProt Q91XF4). In words: flow cytometry, surface staining of Ba/F3 cells (mouse by legend paragraph 54, sheet prints HUMAN) with streptavidin-APC tetramerized nanobody, titration up to 200 nM; control BIOTIN.
The target of test [4] is T2, extracellular domain (ECD) of human …. In words: SPR (Biacore), titration at equilibrium, nanobody on ECD.
Test [5] concerns the target T3, extracellular domain (ECD) of human GRAIL (RNF128) (human, UniProt Q8TEB7 39-207, limits assumed).
T3 construct: extracellular domain; also called GRAIL ECD
T3 sequence (looked up): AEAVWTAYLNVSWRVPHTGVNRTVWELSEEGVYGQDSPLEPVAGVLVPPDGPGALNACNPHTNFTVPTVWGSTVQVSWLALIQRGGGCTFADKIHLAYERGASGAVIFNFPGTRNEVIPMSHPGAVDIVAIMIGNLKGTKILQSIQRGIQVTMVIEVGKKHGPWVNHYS
In words: SPR (Biacore), ligand hRNF128 ECD (GRAIL), analyte GODZILLA-A5 [CONT. 3].

In test [6] the target is T2, extracellular domain (ECD) of human …. In words: SPR (Biacore), titrations at equilibrium, Biacore Analysis Software; row GOLIATH-A1, column GODZILLA (hRNF167).
In test [7] the target is T3, extracellular domain (ECD) of human …. In words: SPR (Biacore), titrations at equilibrium, Biacore Analysis Software; row GOLIATH-A1, column GRAIL (hRNF128).
For test [8] the target is unchanged. In words: SPR (Biacore), titration at equilibrium, nanobody on ECD.
The target in test [9] is T2, extracellular domain (ECD) of human …. In words: SPR (Biacore), titrations at equilibrium, Biacore Analysis Software; row GRAIL-E2, column GODZILLA (hRNF167).
Test [10] deals with T1, extracellular domain (ECD) of human …. In words: SPR (Biacore), titrations at equilibrium, Biacore Analysis Software; row GRAIL-E2, column GOLIATH (hRNF130).
For test [11], the target named is T4, extracellular domain (ECD) of human or mouse RNF43 (human or mouse).
T4 construct: extracellular domain; also called RNF43 ECD
In words: SPR (Biacore), nanobody on ECD.

The next test has as its target T5, mRNF43 ECD.
T5 construct: The mouse half of m18, which leaves the species open; also called extracellular domain of mouse RNF43
T5 chain: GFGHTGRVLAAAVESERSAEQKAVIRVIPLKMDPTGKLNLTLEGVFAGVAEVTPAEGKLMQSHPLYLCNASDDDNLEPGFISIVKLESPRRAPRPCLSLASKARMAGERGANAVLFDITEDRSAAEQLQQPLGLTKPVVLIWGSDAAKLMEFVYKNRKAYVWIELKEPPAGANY
In words: SPR (Biacore), ligand mRNF43 ECD, analyte RNF43 -A4.

B1: GOLIATH (RNF130) VHH of SEQ ID NO: 6 (VHH)
VHH: QVQLQESGGGLVQAGGSLRLSCAASGTISFIGYMGWYRQAPGKERELVASIASGTSTYYADSVKGRFTISRDNAKNTVYLQMNSLKPEDTAVYYCAATQYIQDVHRYWGQGTQVTVSS
notes: also called D1; GOLIATH-D1
Regarding B1, the Kd (commonly the constant that tells how readily two partners part at equilibrium) in test [1] was determined as 6.38 nM. Further, in test [2], the binding result is recorded as “no binding”.

B2: GODZILLA (RNF167) VHH of SEQ ID NO: 9 (VHH)
VHH: QVQLQESGGGLVQAGGSLRLSCAASGSIFRLWYMGWYRQAPGKEREFVASIGIGATTNYADSVKGRFTISRDNAKNTVYLQMNSLKPEDTAVYYCAVFGWAYSGYHDDFLYWGQGTQVTVSS
notes: also called A5; GODZILLA-A5
On to B2, for which the binding result in test [3] is on record as “binds”; in [5] it was “no binding (tested: 1000 (unit not printed))”. This molecule had a Kd in test [4] of 3 nM.

B3: GOLIATH (RNF130) VHH of SEQ ID NO: 5 (VHH)
VHH: QVQLQESGGGLVQAGGSLRLSCAASGYISGYYVMGWYRQAPGKEREFVASISYGASTYYADSVKGRFTISRDNAKNTVYLQMNSLKPEDTAVYYCAVDFDSNYAHTYWGQGTQVTVSS
notes: also called A1; GOLIATH-A1
With B3, the binding result in test [6] and in test [7] was “no binding” throughout. Moreover, in test [1], the affinity, expressed as Kd, was 8.18 nM.

B4: GRAIL (RNF128) VHH of SEQ ID NO: 3 (VHH)
VHH: QVQLQESGGGLVQAGGSLRLSCAASGSISGGKGMGWYRQAPGKEREFVAAIGSGAITYYADSVKGRFTISRDNAKNTVYLQMNSLKPEDTAVYYCAVYTTALDEYPYWGQGTQVTVSS
notes: also called E2; GRAIL-E2
Consider B4, for which the Kd in [8] worked out at 13.5 nM. Also, the binding result in test [9] and in [10] was “no binding” throughout.

B5: RNF43 VHH of SEQ ID NO: 10 (VHH)
VHH: QVQLQESGGGLVQAGGSLRLSCAASGTIFDDLLMGWYRQAPGKERELVAAIGAGATTNYADSVKGRFTISRDNAKNTVYLQMNSLKPEDTAVYYCAAWWLYYKGDWALYLYWGQGTQVTVSS
notes: also called RNF43 nanobody
Turning to B5, binding in test [11] was put at a Kd of 315 nM. Further, the binding result in the test with mRNF43 ECD is recorded as “no binding (tested: highest concentration not legible)”.
